This is an account of results in PMC11626772.

This assay deals with N-terminally truncated type IV pilin from P. aeruginosa strain P1 (ΔP1) (Pseudomonas aeruginosa strain P1). The assay is described as follows: SEC-MALS; 23 mg ml^-1 ΔP1 with trigger solution (10 mM Tris, 300 mM NaCl, 1 mM EDTA, 1 mM DTT, 1 M MPD pH 7.4) at 10:1 (v:v) protein:hydrophobe, 96 h at room temperature with nutation; then SEC-MALS as for the untreated sample; monomer to dimer.

With “N-terminally truncated type IV pilin from P. aeruginosa strain P1 (ΔP1) (domain or fragment)”, the mass fraction of the dimer turned out to be 9.1% and the stoichiometry N (in general, the number of molecules, sites or subunits per partner or assembly) turned out to be 2.
